According to patent publication US20230265151A1, “GIP/GLP1 CO-AGONIST COMPOUNDS” (priority 2020, published 2023):

Tests used:
[1] = biological target: T1, human glucagon receptor (human, UniProt P47871 26-477); test: SPA competition vs [125I]-Gcg, hGcgR membranes
T1 construct: whole, on cells; also called hGCGR; hGcgR
Protocol: The binding buffer contains 25 mM 4-(2-hydroxyethyl)-1-piperazineethanesulfonic acid (HEPES), pH 7.4, 2.5 mM CaCl₂, 1 mM MgCh, 0.1% (w/v) bacitracin (Research Products), 0.003% (w/v) Polyoxyethylenesorbitan monolaurate (TWEEN®-20), and Roche Complete™ Protease Inhibitors without EDTA. […] Plates are sealed and mixed on a plate shaker (setting 6) for 1 minute and read with a PerkinElmer Trilux MicroBeta® scintillation counter after 12 hours of incubation/settling time at room temperature.
Data are analyzed using four-parameter (curve maximum, curve minimum, IC₅₀, Hill slope) nonlinear regression routines (Genedata Screener, version 12.0.4, Genedata AG, Basal, Switzerland). […] Values for Kᵢ are reported as the geometric mean, with error expressed as the standard error of the mean (SEM) and n is equal to the number of independent replicates (determined in assays performed on different days).

[2] = biological target: T2, human GIP receptor (human, UniProt P48546 22-466); test: SPA competition vs [125I]-GIP, hGIPR membranes
T2 construct: whole, on cells; also called hGIPR; human glucose-dependent insulinotropic polypeptide receptor
T2 sequence (looked up): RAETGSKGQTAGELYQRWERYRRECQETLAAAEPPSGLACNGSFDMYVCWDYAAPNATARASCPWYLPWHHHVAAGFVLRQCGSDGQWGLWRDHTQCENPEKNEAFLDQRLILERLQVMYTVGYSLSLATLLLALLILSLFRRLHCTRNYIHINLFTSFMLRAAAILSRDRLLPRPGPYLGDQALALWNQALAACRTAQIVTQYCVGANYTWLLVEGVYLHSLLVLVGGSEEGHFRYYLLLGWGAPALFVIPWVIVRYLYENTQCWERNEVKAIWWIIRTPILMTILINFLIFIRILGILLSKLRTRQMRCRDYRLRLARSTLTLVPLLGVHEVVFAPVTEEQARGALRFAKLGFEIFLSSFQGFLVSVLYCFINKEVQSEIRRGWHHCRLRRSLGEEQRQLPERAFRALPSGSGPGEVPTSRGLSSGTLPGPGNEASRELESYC

[3] = biological target: T3, human GLP-1 receptor (human, UniProt P43220 24-463); test: SPA competition vs [125I]-GLP-1, hGLP-1R membranes
T3 construct: whole, on cells; also called hGLP-1R; human glucagon-like peptide-1 receptor
Method in brief: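 Competition binding in 25 mM HEPES pH 7.4, 2.5 mM CaCl₂, 1 mM MgCl₂, 0.1% bacitracin, 0.003% TWEEN-20, EDTA-free protease inhibitors. IC₅₀ from four-parameter nonlinear fit; Kᵢ given as geometric mean ± SEM, n = independent replicates on different days.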

T1 sequence (P47871 26-477): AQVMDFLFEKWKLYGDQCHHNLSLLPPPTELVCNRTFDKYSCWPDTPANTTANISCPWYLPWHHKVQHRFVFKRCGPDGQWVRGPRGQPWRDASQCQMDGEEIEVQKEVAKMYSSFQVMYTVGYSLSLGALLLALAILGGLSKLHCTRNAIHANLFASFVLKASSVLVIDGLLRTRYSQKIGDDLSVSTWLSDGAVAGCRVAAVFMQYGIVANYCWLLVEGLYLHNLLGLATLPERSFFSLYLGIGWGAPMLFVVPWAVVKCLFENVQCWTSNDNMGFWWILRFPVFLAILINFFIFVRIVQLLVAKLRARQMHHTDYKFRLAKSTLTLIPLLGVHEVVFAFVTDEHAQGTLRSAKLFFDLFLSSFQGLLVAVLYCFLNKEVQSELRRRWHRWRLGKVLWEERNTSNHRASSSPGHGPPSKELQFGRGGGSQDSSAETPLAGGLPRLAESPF

B1: Y-Aib-EGT-αMeF(2F)-TSD-4Pal-Aib-I-αMeL-LD-Orn-K((2-[2-(2-Amino-ethoxy)-ethoxy]-acetyl)2-(γ-Glu)-CO-(CH2)10-CH3)AQ-Aib-Orn-FI-(D-Glu)-αMeY-LIEGGPSSGAPPPSK((2-[2- … (peptide)
peptide: YXEGTXTSDXXIXLDXKAQXXFIXXLIEGGPSSGAPPPSK
modifications: Aib2, αMeF(2F)6, 4Pal10, Aib11, αMeL13, Orn16, K17(Z1), Aib20, Orn21, D-Glu24, αMeY25, K40(Z1), C-term NH2; Z1=AEEA2-(γ-Glu)-CO-(CH2)10-CH3
- Ki [1]: 3.59 nM
- Ki [2]: 0.0174 nM
- Ki [3]: 0.0684 nM

B2: Y-Aib-EGT-αMeF(2F)-TSD-4Pal-Aib-I-αMeL-LD-Orn-K((2-[2-(2-Amino-ethoxy)-ethoxy]-acetyl)3-(γ-Glu)-CO-(CH2)10-CH3)AQ-Aib-EFI-(D-Glu)-αMeY-LIEGGPSSGAPPPSK((2-[2-(2- … (peptide)
peptide: YXEGTXTSDXXIXLDXKAQXEFIXXLIEGGPSSGAPPPSK
modifications: Aib2, αMeF(2F)6, 4Pal10, Aib11, αMeL13, Orn16, K17(Z1), Aib20, D-Glu24, αMeY25, K40(Z1), C-term NH2; Z1=AEEA3-(γ-Glu)-CO-(CH2)10-CH3
- Ki [1]: 16 nM
- Ki [2]: 0.0206 nM
- Ki [3]: 0.219 nM

B3: Y-Aib-EGT-αMeF(2F)-TSD-4Pal-Aib-I-αMeL-LD-Orn-K((2-[2-(2-Amino-ethoxy)-ethoxy]-acetyl)3-(γ … (peptide)
peptide: YXEGTXTSDXXIXLDXKAQXXFIXXLIEGGPSSGAPPPSK
modifications: Aib2, αMeF(2F)6, 4Pal10, Aib11, αMeL13, Orn16, K17(Z1), Aib20, Orn21, D-Glu24, αMeY25, K40(Z1), C-term NH2; Z1=AEEA3-(γ-Glu)-CO-(CH2)10-CH3
- Ki [1]: 14.4 nM
- Ki [2]: 0.0091 nM
- Ki [3]: 0.122 nM

B4: Y-Aib-EGT-αMeF(2F)-TSD-4Pal-Aib-I-αMeL-LD-Orn-QAQ-Aib-Orn-FIK((2-[2-(2-Amino-ethoxy)-ethoxy]-acetyl)2-(γ-Glu)-CO-(CH2)12-CO2H)-αMeY-LIK((2-[2-(2-Amino-ethoxy)-e … (peptide)
peptide: YXEGTXTSDXXIXLDXQAQXXFIKXLIKGGPSSGAPPPS
modifications: Aib2, αMeF(2F)6, 4Pal10, Aib11, αMeL13, Orn16, Aib20, Orn21, K24(Z1), αMeY25, K28(Z1), C-term NH2; Z1=AEEA2-(γ-Glu)-CO-(CH2)12-CO2H
- Ki [1]: 289 nM
- Ki [2]: 0.0279 nM
- Ki [3]: 0.346 nM

B5: Y-Aib-EGT-αMeF(2F)-TSD-4Pal-Aib-I-αMeL-LD-Orn-K((2-[2-(2-Amino-ethoxy)-ethoxy]-acetyl)2-(γ-Glu)-CO-(CH2)10-CH3)AQ-Aib-Orn-FI-(D-Glu)-αMeY-LIK((2-[2-(2-Amino-eth … (peptide)
peptide: YXEGTXTSDXXIXLDXKAQXXFIXXLIKGGPSSGAPPPS
modifications: Aib2, αMeF(2F)6, 4Pal10, Aib11, αMeL13, Orn16, K17(Z1), Aib20, Orn21, D-Glu24, αMeY25, K28(Z1), C-term NH2; Z1=AEEA2-(γ-Glu)-CO-(CH2)10-CH3
- Ki [1]: 33.7 nM
- Ki [2]: 0.0229 nM
- Ki [3]: 0.194 nM

B6: Y-Aib-EGT-αMeF(2F)-TSDK((2-[2-(2-Amino-ethoxy)-ethoxy]-acetyl)3-(γ-Glu)-CO-(CH2)10-CH3)-Aib-I-αMeL-LD-Orn-K((2-[2-(2-Amino-ethoxy)-ethoxy]-acetyl)3-(γ-Glu)-CO-( … (peptide)
peptide: YXEGTXTSDKXIXLDXKAQXXFIXXLIEGGPSSGAPPPS
modifications: Aib2, αMeF(2F)6, K10(Z1), Aib11, αMeL13, Orn16, K17(Z1), Aib20, Orn21, D-Glu24, αMeY25, C-term NH2; Z1=AEEA3-(γ-Glu)-CO-(CH2)10-CH3
- Ki [1]: 356 nM
- Ki [2]: 0.0134 nM
- Ki [3]: 0.134 nM

B7: Y-Aib-EGT-αMeF(2F)-TSD-4Pal-Aib-I-αMeL-LD-Orn-K((2-[2-(2-Amino-ethoxy)-ethoxy]-acetyl)3-(γ-Glu)-CO-(CH2)10-CH3)AQ-Aib-K((2-[2-(2-Amino-ethoxy)-ethoxy]-acetyl)3- … (peptide)
peptide: YXEGTXTSDXXIXLDXKAQXKFIXXLIXGGPSSGAPPPS
modifications: Aib2, αMeF(2F)6, 4Pal10, Aib11, αMeL13, Orn16, K17(Z1), Aib20, K21(Z1), D-Glu24, αMeY25, Orn28, C-term NH2; Z1=AEEA3-(γ-Glu)-CO-(CH2)10-CH3
- Ki [1]: 28.3 nM
- Ki [2]: 0.0175 nM
- Ki [3]: 0.187 nM

B8: Y-Aib-EGT-αMeF(2F)-TSD-4Pal-Aib-I-αMeL-LD-Orn-QAQ-Aib-Orn-FIK((2-[2-(2-Amino-ethoxy)-ethoxy]-acetyl)2-(γ-Glu)-(11-(4-carboxyphenoxy)undecanoyl)-αMeY-LIK((2-[2-( … (peptide)
peptide: YXEGTXTSDXXIXLDXQAQXXFIKXLIKGGPSSGAPPPS
modifications: Aib2, αMeF(2F)6, 4Pal10, Aib11, αMeL13, Orn16, Aib20, Orn21, K24(Z1), αMeY25, K28(Z1), C-term NH2; Z1=AEEA2-(γ-Glu)-(11-(4-carboxyphenoxy)undecanoyl)
- Ki [1]: 130 nM
- Ki [2]: 0.0507 nM
- Ki [3]: 0.164 nM
